Measured values reported in article PMC10419456.

Target: LC3 (microtubule-associated protein 1 light chain 3), endogenous (mouse (endogenous in mouse brain and cultured mouse neurons)) (UniProt Q91VR7)
Experiment: proximity ligation; cultured mouse cortical and cerebellar neurons (wild-type, L1_(687) and L1_(858–863) mutant), without or with L1 antibody 557 (50 µg/mL, 2 h) and without or with tat-LIRWT peptide; fixed, Duolink PLA with mouse L1 antibody C-2 and rabbit LC3 antibody; red spots per cell

fold increase of L1/LC3 proximity ligation spots with L1 antibody 557 against unstimulated neurons: 4 fold
Substance: full-length L1 (neural cell adhesion molecule L1) (from UniProt P11627 20-1260) (natural protein)
